# Source: the supplement of paper PMC7877785
# ± gives the uncertainty stated by the source.
# Test: self-splicing fitness, log relative to wild type (ln ratio); higher = more splicing; Tetrahymena group I intron in knt gene, E. coli kanamycin selection, DiMSum; sequences stand for … in CUCUCU…GGAGGGAAAAGUUAUCAGGCAUGCACCUGGUAGCUAGUCUUUAAACCAAUAGAUUGCAUCGGUUUAAAAGGCAAGACCGUCAAAUUGCGGGAAAGGGGUCAACAGCCGUUCAGUACCAAGUCUCAGGGGAAACUUUGAGAUGGCCUUGCAAAGGGUAUGGUAAUAAGCUGACGGACAUGGUCCUAACCACGCAGCCAAGUCCUAAGUCAACAGAUCUUCUGUUGAUAUGGAUGCAGUUCACAGACUAAAUGUCGGUCGGGGAAGAUGUAUUCUUCUCAUAAGAUAUAGUCGGACCUCUCCUUAAUGGGAGCUAGCGGAUGAAGUGAUGCAACACUGGAGCCGCUGGGAACUAAUUUGUAUGCGAAAGUAUAUUGAUUAGUUUUGGAGUACUCGUGGUCG
# In short: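 A randomised library covering all eight P1ex-region intron nucleotides was built with the intron in the knt kanamycin-resistance gene on pET-22b(+) and held in E. coli BL21(DE3). Cells were grown overnight at 37°C or 30°C on LB agar, with or without 25 μg/mL kanamycin, plus 100 μg/mL carbenicillin, 50 μM IPTG and 0.2% rhamnose, and pooled colonies were amplicon-sequenced on an Illumina HiSeq 2500. DiMSum fitness is the error-weighted combination of wild-type-normalised replicate fold changes, kanamycin versus none.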
Sequence,self-splicing fitness (ln) (30 °C),self-splicing fitness (ln) (37 °C)
CGCCAGCAAUAUUACGCAUA,-3.34 ± 0.24,-1.86 ± 0.2
CGCCAGCAAUAUUACGCCUA,-3 ± 0.36,-1.98 ± 0.32
CGCCAGCAAUAUUACGCGCA,-1.98 ± 0.13,-0.948 ± 0.13
CGCCAGCAAUAUUACGCGCG,-3.57 ± 0.16,-3.7 ± 0.27
CGCCAGCAAUAUUACGCUAC,-3.74 ± 0.36,-2.58 ± 0.28
CGCCAGCAAUAUUACGCUCA,-0.656 ± 0.073,0.163 ± 0.083
CGCCAGCAAUAUUACGCUUA,-3.1 ± 0.21,-1.87 ± 0.17
CGCCAGCAAUAUUACGGCAG,-2.3 ± 0.11,-1.02 ± 0.12
CGCCAGCAAUAUUACGGCUG,-4.51 ± 0.36,-1.67 ± 0.19
CGCCAGCAAUAUUACGGUCG,-4.17 ± 0.19,-2.5 ± 0.2
CGCCAGCAAUAUUACGGUUG,-3.7 ± 0.17,-1.78 ± 0.15
CGCCAGCAAUAUUACGUAAA,-3.21 ± 0.19,-1.46 ± 0.13
CGCCAGCAAUAUUACGUACA,-2.74 ± 0.2,-0.166 ± 0.17
CGCCAGCAAUAUUACGUAUA,-4.14 ± 0.23,-3.42 ± 0.23
CGCCAGCAAUAUUACGUCGU,-3.29 ± 0.15,-2.35 ± 0.16
CGCCAGCAAUAUUACGUGGG,-3.79 ± 0.19,-2.38 ± 0.19
CGCCAGCAAUAUUACGUGUA,-3.04 ± 0.097,-1.04 ± 0.072
CGCCAGCAAUAUUACGUUCU,-3.88 ± 0.26,-1.89 ± 0.17
CGCCAGCAAUAUUACGUUUA,-3.18 ± 0.15,-2.83 ± 0.17
CGCCAGCAAUAUUACGUUUU,-3.8 ± 0.15,-2.76 ± 0.16
CGCGAGCAAUAUUACGACUG,0.265 ± 0.17,0.0174 ± 0.17
CGCGAGCAAUAUUACGAGCG,-3.55 ± 0.28,-2.37 ± 0.3
CGCGAGCAAUAUUACGCCGG,-2.19 ± 0.25,-1.58 ± 0.44
CGCGAGCAAUAUUACGCUGC,-2.91 ± 0.28,
CGCGAGCAAUAUUACGCUGU,-2.6 ± 0.16,-2.74 ± 0.31

Sequence,self-splicing fitness (ln) (30 °C),self-splicing fitness (ln) (37 °C)
CGCGAGCAAUAUUACGGAGC,,-1.99 ± 0.26
CGCGAGCAAUAUUACGGCGC,-2.93 ± 0.23,-2.88 ± 0.31
CGCGAGCAAUAUUACGGCGG,-1.64 ± 0.12,-0.636 ± 0.17
CGCGAGCAAUAUUACGGCUU,-3.01 ± 0.42,-2.54 ± 0.26
CGCGAGCAAUAUUACGGGGC,-3.26 ± 0.26,
CGCGAGCAAUAUUACGGUCU,-3.82 ± 0.2,-0.953 ± 0.15
CGCGAGCAAUAUUACGGUGA,-2.81 ± 0.14,-1.7 ± 0.11
CGCGAGCAAUAUUACGUAUC,-3.93 ± 0.34,-3.93 ± 0.36
CGCGAGCAAUAUUACGUGUA,-3.72 ± 0.18,-1.48 ± 0.11
CGCGAGCAAUAUUACGUUGC,-3.68 ± 0.3,
CGCGAGCAAUAUUACGUUUG,-4.03 ± 0.21,-1.91 ± 0.18
CGCUAGCAAUAUUACGAAGG,-1.06 ± 0.098,-0.735 ± 0.13
CGCUAGCAAUAUUACGAAUC,-3.64 ± 0.21,-0.947 ± 0.15
CGCUAGCAAUAUUACGACUA,-2.81 ± 0.16,-2.52 ± 0.23
CGCUAGCAAUAUUACGACUG,-0.448 ± 0.05,0.456 ± 0.068
CGCUAGCAAUAUUACGAUCC,-2.01 ± 0.37,-1.74 ± 0.42
CGCUAGCAAUAUUACGCACG,-2.53 ± 0.17,-2.06 ± 0.24
CGCUAGCAAUAUUACGCAGG,-3.17 ± 0.18,-1.83 ± 0.23
CGCUAGCAAUAUUACGCAUA,-3.26 ± 0.21,-2.36 ± 0.21
CGCUAGCAAUAUUACGCCAC,-3.86 ± 0.43,-1.09 ± 0.26
CGCUAGCAAUAUUACGCCGC,-2.55 ± 0.18,
CGCUAGCAAUAUUACGGAGU,-3.65 ± 0.27,-2.42 ± 0.25
CGCUAGCAAUAUUACGGGGA,-2.93 ± 0.32,-1.95 ± 0.32
CGCUAGCAAUAUUACGGGUA,-0.542 ± 0.11,-0.011 ± 0.12
CGCUAGCAAUAUUACGGGUG,-3.31 ± 0.12,-2.83 ± 0.13

Sequence,self-splicing fitness (ln) (30 °C),self-splicing fitness (ln) (37 °C)
CGCUAGCAAUAUUACGGUGU,-3.54 ± 0.15,-2.22 ± 0.21
CGCUAGCAAUAUUACGUAAC,-4.07 ± 0.31,-2.87 ± 0.38
CGCUAGCAAUAUUACGUAGG,-1.4 ± 0.058,-0.925 ± 0.081
CGCUAGCAAUAUUACGUCUC,-2.62 ± 0.48,-1.46 ± 0.23
CGCUAGCAAUAUUACGUCUG,-0.182 ± 0.078,0.774 ± 0.089
CGCUAGCAAUAUUACGUGAA,-3.59 ± 0.16,-2.34 ± 0.087
CGCUAGCAAUAUUACGUUCU,-2.16 ± 0.11,-1.67 ± 0.12
CGCUAGCAAUAUUACGUUUA,-3.37 ± 0.23,-2.56 ± 0.18
CGCUAGCAAUAUUACGUUUU,-3.8 ± 0.16,-1.68 ± 0.13
CGGAAGCAAUAUUACGAACC,,-1.43 ± 0.41
CGGAAGCAAUAUUACGAAGA,-3.45 ± 0.4,-3.08 ± 0.47
CGGAAGCAAUAUUACGAAUG,-0.506 ± 0.079,-0.137 ± 0.12
CGGAAGCAAUAUUACGACUA,-0.269 ± 0.1,0.239 ± 0.1
CGGAAGCAAUAUUACGAGAA,-2.88 ± 0.48,-2.03 ± 0.24
CGGAAGCAAUAUUACGAGUU,-3.29 ± 0.2,-2.49 ± 0.2
CGGAAGCAAUAUUACGAUCG,-1.86 ± 0.1,-1.07 ± 0.14
CGGAAGCAAUAUUACGAUGA,-1.91 ± 0.11,-0.379 ± 0.096
CGGAAGCAAUAUUACGCAGA,-1.98 ± 0.33,-2.01 ± 0.3
CGGAAGCAAUAUUACGCAGC,-3.56 ± 0.37,-1.49 ± 0.27
CGGAAGCAAUAUUACGCAGU,-2.73 ± 0.14,-2.25 ± 0.21
CGGAAGCAAUAUUACGCCGG,-0.726 ± 0.15,0.698 ± 0.19
CGGAAGCAAUAUUACGCUAC,-2.38 ± 0.24,-3.01 ± 0.47
CGGAAGCAAUAUUACGCUAG,-1.05 ± 0.091,-1.6 ± 0.19
CGGAAGCAAUAUUACGCUGG,-1.62 ± 0.11,-1.15 ± 0.17
CGGAAGCAAUAUUACGGAAG,,-1.5 ± 0.33

Sequence,self-splicing fitness (ln) (30 °C),self-splicing fitness (ln) (37 °C)
CGGAAGCAAUAUUACGGAAU,-2.11 ± 0.16,-1.08 ± 0.19
CGGAAGCAAUAUUACGGAUC,-3.97 ± 0.37,-2.04 ± 0.27
CGGAAGCAAUAUUACGGCAC,-2.4 ± 0.25,-1.75 ± 0.38
CGGAAGCAAUAUUACGGCCA,0.0398 ± 0.097,0.672 ± 0.16
CGGAAGCAAUAUUACGGUCC,-3.37 ± 0.27,-0.831 ± 0.13
CGGAAGCAAUAUUACGUGAU,-3.44 ± 0.12,-1.96 ± 0.12
CGGAAGCAAUAUUACGUGUU,-3.75 ± 0.17,-2.43 ± 0.17
CGGAAGCAAUAUUACGUUGA,-3.33 ± 0.16,-2.65 ± 0.15
CGGCAGCAAUAUUACGAAAG,-0.748 ± 0.1,-0.538 ± 0.12
CGGCAGCAAUAUUACGAAGA,-2.55 ± 0.17,-1.25 ± 0.18
CGGCAGCAAUAUUACGACAC,-3.52 ± 0.24,-2.65 ± 0.21
CGGCAGCAAUAUUACGAGAA,-3.01 ± 0.19,-2.32 ± 0.19
CGGCAGCAAUAUUACGAGAG,-3.21 ± 0.23,-1.44 ± 0.2
CGGCAGCAAUAUUACGAGGG,-2.39 ± 0.39,-2.15 ± 0.33
CGGCAGCAAUAUUACGAGUU,-5.14 ± 0.41,-2.69 ± 0.29
CGGCAGCAAUAUUACGCAUU,-2.66 ± 0.15,-2.33 ± 0.14
CGGCAGCAAUAUUACGCCUA,-0.162 ± 0.17,0.427 ± 0.13
CGGCAGCAAUAUUACGCGAU,-2.36 ± 0.19,-1.4 ± 0.25
CGGCAGCAAUAUUACGCUAG,-2.62 ± 0.17,-1.34 ± 0.18
CGGCAGCAAUAUUACGCUGG,-3.32 ± 0.16,-2.23 ± 0.21
CGGCAGCAAUAUUACGGGGC,-2.42 ± 0.18,-2.69 ± 0.33
CGGCAGCAAUAUUACGGGUG,-0.564 ± 0.046,-0.449 ± 0.06
